Data on one substance can be found in publication PMC7140980.

What all share (test): transient-state stopped-flow spectrofluorometry
The target of assay [1] is L47fUAA GCK (human pancreatic glucokinase with L-(7-hydroxycoumarin-4-yl)ethylglycine in place of Leu47) (human) (UniProt P35557).
For assay [2] the target is unchanged. This is another data set of the same source.
For assay [3] the target is unchanged. The source holds these as a separate data set.

Where two headings read alike, the source gives them in different places.

Broadly, the Kd is the constant that tells how readily two partners part at equilibrium. Read a low Kd as higher affinity.

Turning to “glucokinase regulatory protein (GKRP) (from UniProt Q14397 1-625) (natural protein)”, in assay [1], the K2 (step 2, equilibrium constant of isomerisation) is 0.51; the Kd was 21000 nM; the Kd,intrinsic (step 1, encounter complex) was determined as 32000 nM; the k1 (step 1, formation of the encounter complex) is 64000 M⁻¹ s⁻¹. In assay [1], this substance registered a k−1 (step 1, dissociation of the encounter complex) of 2.06 s⁻¹ and a k−2 (step 2, isomerisation reverse) of 0.21 s⁻¹. This substance also gave a Kd in assay [2] of 124 nM. In assay [3], the K2 (step 2, equilibrium constant of isomerisation) was found to be 0.72; the Kd came to 123 nM; the Kd,intrinsic (step 1, encounter complex) was determined as 210 nM; the k1 (step 1, formation of the encounter complex) was 170000 M⁻¹ s⁻¹. Moreover, in assay [3], the k−1 (step 1, dissociation of the encounter complex) was 0.036 s⁻¹ and the k−2 (step 2, isomerisation reverse) is 0.36 s⁻¹.
